Measured values published in patent US20220017612A1 (TILOS THERAPEUTICS, published 2022).

Assays:
[1] = target: T1, fusion protein of a human IgG1 Fc domain and human LAP-TGFβ1 (human, UniProt P01137 30-390); test: BLI, antibody on tip, 1:1 model
T1 construct: printed both as Fc-huB1 and LAP-TGFβ-Fc; also called Fc-huB1; Fc-human LAP
Experimental: (§1) The chimeric antibodies were biotinylated using EZ-Link SulfoNHS-LC-Biotin (ThermoFisher). A streptavidin-functionalized tip was equilibrated in binding buffer (10 mM sodium phosphate, 150 mM sodium chloride, 1% (w/v) bovine serum albumin, 0.05% (w/v) sodium azide, pH 7.4). The tip was dipped in a 10 μg/mL solution of biotinylated, chimeric anti-LAP in binding buffer for 15 seconds to load the tip with antibody. The antibody-loaded tip was then washed in binding buffer and placed in a solution containing 0-24 nM of LAP-TGFβ1 (either a fusion protein containing a human IgG1 Fc domain fused to human LAP-TGFβ1 or a murine LAP-TGFβ1 with a C-terminal polyhistidine purification tag). The antigen was allowed to bind to antibody for 5 minutes (association phase), and then the tip was moved to binding buffer (dissociation phase). The association and dissociation phases were fit to a 1:1 binding model to determine the binding rate constants.

[2] = target: T2, murine LAP-TGFβ1 with a C-terminal polyhistidine purification tag (mouse, UniProt P04202 30-390); test: BLI, antibody on tip, 1:1 model
T2 construct: also called Mouse LAP-TGFβ1
Experimental: as §1

[3] = target: T3, human LAP-TGFβ2 overexpressed on HT1080 cells (human, UniProt P61812 21-414); test: flow cytometry titration, HT1080-huB2 cells
T3 construct: also called HT1080-huB2
T3 sequence: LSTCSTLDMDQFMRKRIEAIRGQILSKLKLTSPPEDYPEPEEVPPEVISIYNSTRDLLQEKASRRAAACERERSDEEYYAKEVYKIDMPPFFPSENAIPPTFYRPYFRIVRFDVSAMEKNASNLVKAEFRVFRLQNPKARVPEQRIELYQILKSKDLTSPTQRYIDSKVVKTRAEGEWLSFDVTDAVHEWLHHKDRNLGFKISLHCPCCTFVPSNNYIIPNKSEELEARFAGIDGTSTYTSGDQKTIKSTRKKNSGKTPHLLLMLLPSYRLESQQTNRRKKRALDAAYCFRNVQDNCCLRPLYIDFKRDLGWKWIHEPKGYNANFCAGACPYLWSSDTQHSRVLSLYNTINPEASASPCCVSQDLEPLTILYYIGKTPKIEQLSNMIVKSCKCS
Experimental: (§2) This Example describes the binding of anti-LAP antibodies to LAP-TGFβ isoforms and LAP-TGFβ variants. In addition to antibodies 28G11_hIgG1, 22F9_hIgG1, and 20E6_hIgG1, anti-LAP antibodies 17G8_hIgG1, 24E3_hIgG1, and 2C9_(hyb) were also tested in this experiment. Briefly, 4×10⁵ each of (a) HT1080 cells, (b) HT1080 cells overexpressing human LAP-TGFβ1, (c) HT1080 cells overexpressing human LAP-TGFβ2, (d) HT1080 cells overexpressing human LAP-TGFβ3, (e) HT1080 cells overexpressing murine LAP-TGFβ1, (f) P3U1 cells, (g) P3U1 cells overexpressing LAP-TGFβ1 and GARP, and (h) P3U1 cells overexpressing LAP-TGFβ1 and LRRC33 were cultured in 96-well plates. The plates were centrifuged for 5 min at 1,500 rpm, liquid was removed, and cells were resuspended with 200 μL FACS buffer. The plates were centrifuged again, diluted primary antibody was added to each well, and the plates were incubated on ice for 20 minutes, followed by centrifugation. The cells were resuspended in 200 μL FACS buffer, centrifuged again, and resuspended in 50 μL diluted secondary antibody (Alexa647-anti-Human IgG or APC-anti-Mouse IgG). The plates were incubated on ice for 20 minutes in the dark, washed twice with 200 μL FACS buffer, and cells from each well (in 200 μL FACS buffer) were read on the Attune NXT instrument.

[4] = target: T4, human LAP-TGFβ1 overexpressed on cells (human, UniProt P01137 30-390); test: cell-based or functional assay
[5] = target: T5, human LAP-TGFβ3 overexpressed on HT1080 cells (human, UniProt P10600 24-412); test: flow cytometry titration, HT1080-huB3 cells
T5 construct: also called HT1080-huB3
T5 sequence: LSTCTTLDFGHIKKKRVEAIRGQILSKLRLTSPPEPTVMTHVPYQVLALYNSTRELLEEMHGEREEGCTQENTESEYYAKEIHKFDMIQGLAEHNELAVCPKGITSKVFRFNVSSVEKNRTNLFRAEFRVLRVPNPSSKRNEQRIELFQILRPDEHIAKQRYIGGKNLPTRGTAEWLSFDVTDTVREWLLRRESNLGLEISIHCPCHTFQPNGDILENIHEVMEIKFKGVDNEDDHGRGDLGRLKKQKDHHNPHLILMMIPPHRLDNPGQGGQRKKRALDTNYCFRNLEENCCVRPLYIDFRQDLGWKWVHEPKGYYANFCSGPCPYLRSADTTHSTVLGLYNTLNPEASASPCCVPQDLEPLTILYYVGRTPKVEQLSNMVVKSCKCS
Experimental: as §2

[6] = target: T6, LAP-only variant of human TGFβ1 (empty LAP) on HT1080 cells (human, UniProt P01137 30-277); test: flow cytometry, HT1080 cells; grey bar = no anti-LAP antibody
T6 construct: LAP without the mature cytokine; also called HT1080-emptyLAP; LAP-only construct
Experimental: as §2
(§3) Cells were processed for flow cytometry in the same manner described above for the isoform-specific binding experiments.

[7] = target: T7, human LAP-TGFβ1 with a Y74T mutation on HT1080 cells (human, UniProt P01137 30-390); test: as above
T7 construct: also called HT1080-Y74T; open conformation
Experimental: as §2, §3

[8] = target: T8, human-chicken LAP-TGFβ1 chimera #2.2 on HT1080 cells (human/chicken chimera, UniProt P01137 30-390); test: as above
T8 construct: also called HT1080-ch2.2
Experimental: as §2, §3

[9] = target: T9, human LAP-TGFβ1 with K27C and Y75C mutations on HT1080 cells (human, UniProt P01137 30-390); test: as above
T9 construct: also called closed conformation
Experimental: as §2, §3

[10] = target: T4, human LAP-TGFβ1 overexpressed on cells; test: cell-based or functional assay; remark: listed apart in the source
[11] = target: murine LAP-TGFβ1 overexpressed on cells (mouse, UniProt P04202 30-390); test: cell-based or functional assay
[12] = target: T10, mature human TGFβ1 (free TGFβ1, without LAP) (human, UniProt P01137 279-390); test: TGFβ1 ELISA after pre-incubation of 1000 pg mature TGFβ1 with antibody; loss of signal reflects binding
T10 construct: also called mature TGFβ; free human TGFβ1
Experimental: To determine whether anti-LAP antibodies 28G11_hIgG1, 22F9_hIgG1, 20E6_hIgG1, 17G8_hIgG1, and 24E3_hIgG1, bind to free human TGFβ1 (i.e., mature TGFβ1 that lacks LAP), the ability of the antibodies to inhibit an anti-TGFβ ELISA was evaluated. Briefly, mature TGFβ1 (1000 pg) was incubated with the indicated anti-LAP antibodies at 10 μg/mL, an isotype control antibody as a negative control or the commercially available anti-TGFβ antibody 1D11 as a positive control for 10 minutes on ice. For example, the 1D11 antibody is commercially available from any number of sellers, for example Bio x Cell Inc. (West Lebanon, N.H.). Supernatants were assayed in a TGFβ1 ELISA (R&D Systems) according to the manufacturer instructions to measure free TGFβ1. […] Note that Figure and FIG. are used interchangeably in this application.

[13] = target: T4, human LAP-TGFβ1 overexpressed on cells; test: flow cytometry; legend box on the sheet: black HT1080-null, grey HT1080-huB1
[14] = target: T11, LAP-TGFβ1 on U937 cells (Homo sapiens, UniProt P01137); test: flow cytometry dot plot against GARP, U937 cells, Alexa 647 antibody at 10 ug/ml
T11 construct: cell surface, endogenous; also called LAP+ U937 cells
Experimental: (§4) Anti-LAP antibodies were tested for their ability to bind to U937 cells, a myeloid cell line derived from a patient with histiocytic lymphoma. U937 cells were incubated with FACS buffer and human Fc block followed by incubation with varying concentrations of Alexa 647 conjugated 28G11_hyb, 22F9_mIgG2a, or 20E6_mIgG2a. In a separate experiment U937 cells were incubated with FACS buffer and human Fc block followed by incubation with 10 ug/ml of Alexa 647 conjugated 28G11_hyb, 22F9_mIgG2a, 20E6_mIgG2a or mIgG2a isotype control (FIGS. 10E and 10F). Representative dot plots are shown in FIG. 10G; in these plots, antibodies were at 10 ug/ml.

[15] = target: T11, LAP-TGFβ1 on U937 cells; test: flow cytometry, U937 cells, Alexa 647 antibody, % LAP+ cells
Experimental: as §4

T4 sequence (P01137 30-390): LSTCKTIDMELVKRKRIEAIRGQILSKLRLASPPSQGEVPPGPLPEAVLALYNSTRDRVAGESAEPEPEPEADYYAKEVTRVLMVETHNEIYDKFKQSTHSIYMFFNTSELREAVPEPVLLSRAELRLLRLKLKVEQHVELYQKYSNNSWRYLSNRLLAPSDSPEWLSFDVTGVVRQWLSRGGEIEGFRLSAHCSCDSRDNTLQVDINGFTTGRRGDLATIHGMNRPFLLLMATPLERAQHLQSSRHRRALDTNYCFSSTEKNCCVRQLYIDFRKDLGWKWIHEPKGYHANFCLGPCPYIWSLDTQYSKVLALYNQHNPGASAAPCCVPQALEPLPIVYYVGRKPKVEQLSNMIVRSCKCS
T11 sequence (P01137 30-390 limits assumed): as the sequence (P01137 30-390) above
T1 sequence (P01137 30-390 limits assumed): as the sequence (P01137 30-390) above
T2 sequence (P04202 30-390 limits assumed): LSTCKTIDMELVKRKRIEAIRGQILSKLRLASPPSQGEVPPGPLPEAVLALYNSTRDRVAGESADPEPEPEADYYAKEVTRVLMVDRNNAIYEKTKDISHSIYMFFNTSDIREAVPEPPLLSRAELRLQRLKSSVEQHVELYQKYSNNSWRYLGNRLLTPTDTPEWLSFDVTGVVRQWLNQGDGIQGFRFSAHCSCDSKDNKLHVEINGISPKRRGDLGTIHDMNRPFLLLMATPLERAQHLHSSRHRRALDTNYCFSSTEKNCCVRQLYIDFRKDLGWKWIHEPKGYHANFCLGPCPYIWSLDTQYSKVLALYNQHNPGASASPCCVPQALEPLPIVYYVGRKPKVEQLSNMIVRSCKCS
murine LAP-TGFβ1 overexpressed on cells, sequence (P04202 30-390): as the sequence (P04202 30-390 limits assumed) above
T7 sequence (P01137 other isoform, or with tags, fused parts or gaps Y74T Y74T): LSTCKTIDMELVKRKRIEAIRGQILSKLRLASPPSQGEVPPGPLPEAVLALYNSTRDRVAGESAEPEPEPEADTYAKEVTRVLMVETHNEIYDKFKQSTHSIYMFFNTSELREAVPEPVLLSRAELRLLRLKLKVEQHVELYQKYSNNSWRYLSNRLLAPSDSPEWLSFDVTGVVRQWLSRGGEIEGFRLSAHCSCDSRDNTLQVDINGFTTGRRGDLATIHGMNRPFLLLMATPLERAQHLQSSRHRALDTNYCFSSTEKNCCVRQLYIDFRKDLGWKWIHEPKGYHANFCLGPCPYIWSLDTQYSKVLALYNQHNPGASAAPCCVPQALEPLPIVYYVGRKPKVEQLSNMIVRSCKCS
T8 sequence (P01137 other isoform, or with tags, fused parts or gaps mutant): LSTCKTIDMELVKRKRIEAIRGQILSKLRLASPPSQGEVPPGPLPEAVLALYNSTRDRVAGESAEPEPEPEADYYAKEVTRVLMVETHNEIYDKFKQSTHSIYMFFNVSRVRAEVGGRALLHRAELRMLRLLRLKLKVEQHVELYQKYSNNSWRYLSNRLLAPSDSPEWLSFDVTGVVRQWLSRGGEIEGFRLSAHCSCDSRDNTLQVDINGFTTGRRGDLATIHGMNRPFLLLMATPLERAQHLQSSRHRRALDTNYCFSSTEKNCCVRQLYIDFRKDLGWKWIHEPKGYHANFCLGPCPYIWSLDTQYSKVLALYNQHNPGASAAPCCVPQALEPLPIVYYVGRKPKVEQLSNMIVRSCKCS
T9 sequence (P01137 other isoform, or with tags, fused parts or gaps K27C Y75C K27C Y75C): as the sequence (P01137 other isoform, or with tags, fused parts or gaps Y74T Y74T) above, with K27C, T74Y, Y75C counted along it
T10 sequence (P01137 279-390 limits assumed): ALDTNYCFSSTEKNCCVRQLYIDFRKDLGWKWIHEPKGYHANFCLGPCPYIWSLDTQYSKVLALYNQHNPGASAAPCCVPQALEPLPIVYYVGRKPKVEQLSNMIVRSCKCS
T6 sequence (P01137 30-277, change not shown): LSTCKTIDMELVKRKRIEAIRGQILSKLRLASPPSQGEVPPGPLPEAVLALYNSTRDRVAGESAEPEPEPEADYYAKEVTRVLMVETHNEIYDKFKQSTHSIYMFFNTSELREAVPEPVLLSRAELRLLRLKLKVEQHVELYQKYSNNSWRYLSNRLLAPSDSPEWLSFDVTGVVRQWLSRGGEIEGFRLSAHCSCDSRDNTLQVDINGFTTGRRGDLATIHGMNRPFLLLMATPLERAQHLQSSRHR

B1: 28G11_hIgG1 (antibody, V domains shown)
VH: EVKLVESGGGLVQPGGSLSLSCAASGFTFTDYYMSWVRQPPGKALEWLGFIRNKPNGYTTEYSASVKGRFTISRDNSQSILYLQMNVLRAEDSATYYCARYTGGGYFDYWGQGTTLTVSS
VL: DIQMTQTTSSLSASLGDRLTISCRASQDISNYLNWYQQKPDGTVKLLIYYTSRLHSGVPSRFSGSGSGTDYSLTISNLEQADIATYFCQQGDTLPWTFGGGTKLEIK
A Kd [1] of 0.67 nM, a koff [1] of 0.00036 s⁻¹ and a kon [1] of 540000 M⁻¹ s⁻¹ were found for B1 in this work. The Kd [2] was 0.19 nM, the koff [2] was 0.000158 s⁻¹ and the kon [2] was 840000 M⁻¹ s⁻¹. The binding result [3] was “no binding (tested: about 800 ng/well)”, the “Inhibition of human TGFβ1 activation (IC50)” value [4] was 2.3 µg/mL and the binding result [5] was “no binding (tested: about 800 ng/well)”. B1: no binding [6]; no binding [7]; no binding [8]. For the same binder, the binding result [9] was “binds”, the “IC50 of inhibition of TGFβ1 activation (ELISA of active TGFβ1)” value [10] was 1.4 µg/mL and the “IC50 of inhibition of TGFβ1 activation (ELISA of active TGFβ1)” value [11] was 1 µg/mL. B1: no binding (tested: 10 µg/mL) [12].

B2: 28G11_H2.1L3 (antibody, human IgG1, kappa, V domains shown)
VH: EVQLVESGGGLVQPGGSLRLSCAASGFTFTDYYMSWVRQAPGKGLEWLGFIRNKPQGYTTEYSASVKGRFTISRDNSQSSLYLQMNSLKTEDTAVYYCARYTGGGYFDYWGQGTLLTVSS
VL: DIQMTQSPSSLSASVGDRLTISCRASQDISNYLNWYQQKPGKTVKLLIYYTSRLHSGVPSRFSGSGSGTDYTLTISSLQPEDVATYFCQQGDTLPWTFGQGTKLEIKR
B2: binds [13].

B3: 28G11_H2aL3a (antibody, human IgG1, kappa, V domains shown)
VH: EVQLVESGGGLVQPGGSLRLSCAASGFTFTDYYMSWVRQAPGKGLEWVGFIRNKPNGYTTEYSASVKGRFTISRDNSKNSLYLQMNSLKTEDTAVYYCARYTGGGYFDYWGQGTLVTVSS
VL: DIQMTQSPSSLSASVGDRLTISCRASQDISNYLNWYQQKPGKVVKLLIYYTSRLHSGVPSRFSGSGSGTDYTLTISSLQPEDVATYYCQQGDTLPWTFGQGTKLEIKR
B3: binds [13].

B4: 22F9_mIgG2a (antibody, V domains shown)
VH: QVQLQQPGAELVKPGASVKLSCKASGYTFTSYWMHWVKQRPGQGLEWIGMIHPNSGSTNYNEKFKSKATLTVDKSSSTAYMQLSSLTSEDSAVYYCAYYDYDGFFDVWGTGTTVTVSS
VL: DIVLTQSPASLDVSLGQRATISCRASKSVSTSGYSYMHWYQQKSGQPPKLLIYLASNLESGVPARFSGSGSGTHFTLNIHPVEEEDAATYYCQHSRELPYTFGGGTKLEIK
notes: also called 22F9_IgG2a
For B4, the “% of cells in Q1 (antibody axis positive, GARP negative)” value [14] was 43.8%, the “% of cells in Q2 (antibody axis positive, GARP positive)” value [14] was 0.44% and the “EC50 (read off the curve)” value [15] was about 20 µg/mL. For the same binder, the “IC50 of inhibition of TGFβ1 activation” value [10] was 1.8 µg/mL and the “IC50 of inhibition of TGFβ1 activation” value [11] was 1 µg/mL.
